# According to IntAct's records for PubMed 14673118:
# B1: Thioredoxin (Synechocystis sp. (strain PCC 6803 / Kazusa)), P52231 (parent)
# chain: MSATPQVSDASFKEDVLDSELPVLVDFWAPWCGPCRMVAPVVDEISQQYEGKVKVVKLNTDENPNTASQYGIRSIPTLMIFKGGQRVDMVVGAVPKTTLASTLEKYL
# partner: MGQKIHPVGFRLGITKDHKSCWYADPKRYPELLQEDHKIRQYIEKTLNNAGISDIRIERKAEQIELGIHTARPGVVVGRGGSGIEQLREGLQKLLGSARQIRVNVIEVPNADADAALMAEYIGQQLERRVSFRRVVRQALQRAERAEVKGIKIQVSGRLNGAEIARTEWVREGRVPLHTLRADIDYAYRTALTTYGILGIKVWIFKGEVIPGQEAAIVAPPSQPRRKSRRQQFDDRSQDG
# B2: Thioredoxin (Synechocystis sp. (strain PCC 6803 / Kazusa)), P52231 (parent)
# chain: B1 chain
# B3: Thioredoxin (Synechocystis sp. (strain PCC 6803 / Kazusa)), P52231 (parent)
# chain: B1 chain
# partner: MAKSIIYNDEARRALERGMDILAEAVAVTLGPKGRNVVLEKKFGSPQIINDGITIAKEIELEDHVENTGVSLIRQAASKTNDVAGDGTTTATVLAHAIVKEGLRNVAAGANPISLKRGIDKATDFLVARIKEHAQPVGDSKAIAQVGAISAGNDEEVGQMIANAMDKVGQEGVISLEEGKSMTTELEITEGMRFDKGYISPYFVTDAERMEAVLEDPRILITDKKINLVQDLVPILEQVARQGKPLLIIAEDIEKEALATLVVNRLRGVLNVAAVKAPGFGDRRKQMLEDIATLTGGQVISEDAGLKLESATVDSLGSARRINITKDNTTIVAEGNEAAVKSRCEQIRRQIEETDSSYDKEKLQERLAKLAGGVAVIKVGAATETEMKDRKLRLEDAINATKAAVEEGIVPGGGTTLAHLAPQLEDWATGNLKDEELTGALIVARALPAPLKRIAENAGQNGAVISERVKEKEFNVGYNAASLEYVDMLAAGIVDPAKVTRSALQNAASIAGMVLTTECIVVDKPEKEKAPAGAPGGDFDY
# B4: Thioredoxin (Synechocystis sp. (strain PCC 6803 / Kazusa)), P52231 (parent)
# chain: B1 chain
# partner: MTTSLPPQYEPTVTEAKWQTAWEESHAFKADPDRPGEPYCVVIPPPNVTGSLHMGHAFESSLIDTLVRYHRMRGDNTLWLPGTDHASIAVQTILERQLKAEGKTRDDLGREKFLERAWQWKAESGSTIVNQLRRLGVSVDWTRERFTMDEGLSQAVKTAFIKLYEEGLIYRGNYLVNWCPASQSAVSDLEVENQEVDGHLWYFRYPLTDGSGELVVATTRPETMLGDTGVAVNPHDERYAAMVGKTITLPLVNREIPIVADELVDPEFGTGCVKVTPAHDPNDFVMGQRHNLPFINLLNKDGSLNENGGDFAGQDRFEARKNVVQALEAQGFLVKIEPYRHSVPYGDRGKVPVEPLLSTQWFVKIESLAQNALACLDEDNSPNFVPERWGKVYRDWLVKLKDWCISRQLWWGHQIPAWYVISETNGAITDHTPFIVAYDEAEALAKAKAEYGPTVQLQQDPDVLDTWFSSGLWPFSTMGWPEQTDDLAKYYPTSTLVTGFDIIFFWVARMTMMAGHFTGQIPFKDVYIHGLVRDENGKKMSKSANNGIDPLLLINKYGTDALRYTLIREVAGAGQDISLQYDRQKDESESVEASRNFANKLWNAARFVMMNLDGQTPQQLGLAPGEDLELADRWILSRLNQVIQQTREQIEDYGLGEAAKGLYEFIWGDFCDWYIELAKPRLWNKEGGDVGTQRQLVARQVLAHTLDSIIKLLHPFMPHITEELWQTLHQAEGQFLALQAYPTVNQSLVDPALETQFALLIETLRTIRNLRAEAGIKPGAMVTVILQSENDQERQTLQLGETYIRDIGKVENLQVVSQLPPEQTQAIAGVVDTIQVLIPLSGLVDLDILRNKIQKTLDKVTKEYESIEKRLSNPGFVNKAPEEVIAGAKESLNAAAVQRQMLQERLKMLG
# B5: Thioredoxin (Synechocystis sp. (strain PCC 6803 / Kazusa)), P52231 (parent)
# chain: B1 chain
# partner: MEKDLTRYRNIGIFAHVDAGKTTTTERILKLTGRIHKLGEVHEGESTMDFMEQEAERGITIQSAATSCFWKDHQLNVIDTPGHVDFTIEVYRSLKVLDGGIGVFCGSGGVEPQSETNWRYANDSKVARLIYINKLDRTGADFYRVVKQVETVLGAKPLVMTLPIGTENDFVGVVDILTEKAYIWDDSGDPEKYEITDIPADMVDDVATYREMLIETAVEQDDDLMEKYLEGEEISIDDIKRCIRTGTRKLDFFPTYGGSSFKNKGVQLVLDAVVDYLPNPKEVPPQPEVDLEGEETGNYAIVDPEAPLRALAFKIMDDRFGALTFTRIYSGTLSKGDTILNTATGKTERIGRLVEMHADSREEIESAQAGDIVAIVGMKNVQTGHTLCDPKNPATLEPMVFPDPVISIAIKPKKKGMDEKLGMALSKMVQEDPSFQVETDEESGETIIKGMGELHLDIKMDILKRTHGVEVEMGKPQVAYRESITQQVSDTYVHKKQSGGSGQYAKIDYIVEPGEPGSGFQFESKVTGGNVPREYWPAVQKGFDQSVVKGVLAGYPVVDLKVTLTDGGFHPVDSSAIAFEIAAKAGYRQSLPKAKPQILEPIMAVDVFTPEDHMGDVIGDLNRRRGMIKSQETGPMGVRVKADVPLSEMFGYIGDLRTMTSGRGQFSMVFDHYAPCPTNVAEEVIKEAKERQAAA
# B6: Thioredoxin (Synechocystis sp. (strain PCC 6803 / Kazusa)), P52231 (parent)
# chain: B1 chain
# partner: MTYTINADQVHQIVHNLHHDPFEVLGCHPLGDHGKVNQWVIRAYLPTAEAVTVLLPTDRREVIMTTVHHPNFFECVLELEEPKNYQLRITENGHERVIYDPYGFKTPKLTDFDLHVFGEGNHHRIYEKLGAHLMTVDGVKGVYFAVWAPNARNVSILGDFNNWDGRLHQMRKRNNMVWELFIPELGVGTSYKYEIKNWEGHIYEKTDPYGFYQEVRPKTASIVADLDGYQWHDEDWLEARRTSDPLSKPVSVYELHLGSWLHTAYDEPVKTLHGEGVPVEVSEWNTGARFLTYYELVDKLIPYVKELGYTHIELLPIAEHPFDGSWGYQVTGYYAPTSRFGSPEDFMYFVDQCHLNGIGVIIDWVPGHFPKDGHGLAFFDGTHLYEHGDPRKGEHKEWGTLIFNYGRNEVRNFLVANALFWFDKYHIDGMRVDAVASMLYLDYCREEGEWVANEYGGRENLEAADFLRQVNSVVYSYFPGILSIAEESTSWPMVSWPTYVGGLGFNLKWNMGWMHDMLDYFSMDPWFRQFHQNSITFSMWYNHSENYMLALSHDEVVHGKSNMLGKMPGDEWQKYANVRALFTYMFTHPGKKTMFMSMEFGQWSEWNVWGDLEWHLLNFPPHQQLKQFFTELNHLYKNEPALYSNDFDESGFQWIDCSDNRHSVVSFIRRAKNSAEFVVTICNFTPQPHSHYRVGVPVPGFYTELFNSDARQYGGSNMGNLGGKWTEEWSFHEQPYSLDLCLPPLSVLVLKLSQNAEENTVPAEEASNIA
# Variants of: B1
# Settings: with rs3_syny3 rpsC
row,Variant,effect of a mutation on the interaction
1,C35S,increasing interaction

# Variants of: B2
# Settings: with glts_syny3 gltS
row,Variant,effect of a mutation on the interaction
1,C35S,increasing interaction

# Variants of: B2
# Settings: with rbl_syny3 cbbL
row,Variant,effect of a mutation on the interaction
1,C35S,increasing interaction

# Variants of: B2
# Settings: with eftu_syny3 tuf
row,Variant,effect of a mutation on the interaction
1,C35S,increasing interaction

# Variants of: B2
# Settings: with gltb_syny3 gltB
row,Variant,effect of a mutation on the interaction
1,C35S,increasing interaction

# Variants of: B2
# Settings: with apce_syny3 apcE
row,Variant,effect of a mutation on the interaction
1,C35S,increasing interaction

# Variants of: B3
# Settings: with ch601_syny3 groEL1, Q05972
row,Variant,effect of a mutation on the interaction
1,C35S,increasing interaction

# Variants of: B4
# Settings: with syv_syny3 valS
row,Variant,effect of a mutation on the interaction
1,C35S,increasing interaction

# Variants of: B5
# Settings: with efg1_syny3 fusA
row,Variant,effect of a mutation on the interaction
1,C35S,increasing interaction

# Variants of: B6
# Settings: with glgb_syny3 glgB
row,Variant,effect of a mutation on the interaction
1,C35S,increasing interaction
